In paper PMC10866549 (Science Advances, 2024):

Molecular target: T1, NRF2-His (his-tag mouse NRF2) (mouse, UniProt Q60795 1-597)
T1 sequence (looked up): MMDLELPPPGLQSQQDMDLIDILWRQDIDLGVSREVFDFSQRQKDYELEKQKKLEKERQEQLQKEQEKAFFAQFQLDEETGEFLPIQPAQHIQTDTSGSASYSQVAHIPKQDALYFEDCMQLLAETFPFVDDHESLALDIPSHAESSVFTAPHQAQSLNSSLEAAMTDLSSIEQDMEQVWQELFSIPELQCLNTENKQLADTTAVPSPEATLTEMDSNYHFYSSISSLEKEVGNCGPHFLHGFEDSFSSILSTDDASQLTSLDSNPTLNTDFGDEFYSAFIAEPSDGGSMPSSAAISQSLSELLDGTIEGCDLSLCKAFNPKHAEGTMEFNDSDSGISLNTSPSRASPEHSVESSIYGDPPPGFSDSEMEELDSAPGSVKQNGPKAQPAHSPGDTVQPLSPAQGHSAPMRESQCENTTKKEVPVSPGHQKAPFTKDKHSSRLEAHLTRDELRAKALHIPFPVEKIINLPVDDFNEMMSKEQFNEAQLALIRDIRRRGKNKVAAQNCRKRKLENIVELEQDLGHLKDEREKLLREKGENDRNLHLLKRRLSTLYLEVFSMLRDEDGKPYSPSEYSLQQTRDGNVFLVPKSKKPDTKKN
Assay: pull-down

binding result: binds
B1: p53R245W-Flag (natural protein, mouse, UniProt P02340 1-390, looked up)
chain: MTAMEESQSDISLELPLSQETFSGLWKLLPPEDILPSPHCMDDLLLPQDVEEFFEGPSEALRVSGAPAAQDPVTETPGPVAPAPATPWPLSSFVPSQKTYQGNYGFHLGFLQSGTAKSVMCTYSPPLNKLFCQLAKTCPVQLWVSATPPAGSRVRAMAIYKKSQHMTEVVRRCPHHERCSDGDGLAPPQHLIRVEGNLYPEYLEDRQTFRHSVVVPYEPPEAGSEYTTIHYKYMCNSSCMGGMNWRPILTIITLEDSSGNLLGRDSFEVRVCACPGRDRRTEEENFRKKEVLCPELPPGSAKRALPTCTSASPPQKKKPLDGEYFTLKIRGRKRFEMFRELNEALELKDAHATEESGDSRAHSSYLKTKKGQSTSRHKKTMVKKVGPDSD
